{"source": "patent US20260098093A1", "about": "(HUMMINGBIRD BIOSCIENCE PTE, published 2026)", "key": {"[1]": {"target": "T1, B7H3 (human, UniProt Q5ZPR3 29-461, limits assumed)", "T1 construct": "also called CD276", "T1 sequence (looked up)": "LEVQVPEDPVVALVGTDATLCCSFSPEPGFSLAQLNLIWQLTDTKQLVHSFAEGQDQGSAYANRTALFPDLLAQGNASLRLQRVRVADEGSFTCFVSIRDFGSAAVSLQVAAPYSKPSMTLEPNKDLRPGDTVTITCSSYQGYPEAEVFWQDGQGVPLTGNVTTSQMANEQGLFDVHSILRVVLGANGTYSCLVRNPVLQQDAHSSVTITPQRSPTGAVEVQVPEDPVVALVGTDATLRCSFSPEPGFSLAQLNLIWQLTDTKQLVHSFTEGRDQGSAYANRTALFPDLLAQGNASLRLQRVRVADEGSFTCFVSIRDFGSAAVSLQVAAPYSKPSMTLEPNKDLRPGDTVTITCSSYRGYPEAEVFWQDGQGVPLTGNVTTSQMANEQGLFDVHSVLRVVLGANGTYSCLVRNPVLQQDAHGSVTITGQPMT", "assay": "ELISA: plate coated with the named human antigen, 4M2-C12-mIgG2a titrated, absorbance 450 nm"}, "[2]": {"target": "B7H1/PDL-1 (human, UniProt Q9NZQ7 19-239, limits assumed)", "assay": "ELISA: plate coated with the named human antigen, 4M2-C12-mIgG2a titrated, absorbance 450 nm"}, "[3]": {"target": "T2, CTLA-4 (human, UniProt P16410 36-162, limits assumed)", "T2 sequence (looked up)": "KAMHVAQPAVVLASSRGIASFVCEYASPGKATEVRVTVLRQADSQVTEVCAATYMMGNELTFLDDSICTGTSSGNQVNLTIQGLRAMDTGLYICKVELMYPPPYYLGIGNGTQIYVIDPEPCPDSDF", "assay": "ELISA: plate coated with the named human antigen, 4M2-C12-mIgG2a titrated, absorbance 450 nm"}, "[4]": {"target": "PD-1 (human, UniProt Q15116 25-167, limits assumed)", "assay": "ELISA: plate coated with the named human antigen, 4M2-C12-mIgG2a titrated, absorbance 450 nm"}, "[5]": {"target": "T3, B7H7 (human, UniProt Q9UM44 23-344, limits assumed)", "T3 construct": "also called HHLA2", "T3 sequence (looked up)": "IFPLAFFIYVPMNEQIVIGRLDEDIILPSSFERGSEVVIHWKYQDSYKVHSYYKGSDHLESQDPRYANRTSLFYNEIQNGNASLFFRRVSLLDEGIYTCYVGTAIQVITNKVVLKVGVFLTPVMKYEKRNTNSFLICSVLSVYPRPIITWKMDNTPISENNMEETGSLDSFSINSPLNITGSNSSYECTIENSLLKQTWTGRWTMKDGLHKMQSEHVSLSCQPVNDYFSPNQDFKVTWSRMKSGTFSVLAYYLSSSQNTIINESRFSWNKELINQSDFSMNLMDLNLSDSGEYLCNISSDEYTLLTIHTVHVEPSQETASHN", "assay": "ELISA: plate coated with the named human antigen, 4M2-C12-mIgG2a titrated, absorbance 450 nm"}, "[6]": {"target": "T4, B7H4 (human, UniProt Q7Z7D3 29-258, limits assumed)", "T4 construct": "also called VTCN1", "T4 sequence (looked up)": "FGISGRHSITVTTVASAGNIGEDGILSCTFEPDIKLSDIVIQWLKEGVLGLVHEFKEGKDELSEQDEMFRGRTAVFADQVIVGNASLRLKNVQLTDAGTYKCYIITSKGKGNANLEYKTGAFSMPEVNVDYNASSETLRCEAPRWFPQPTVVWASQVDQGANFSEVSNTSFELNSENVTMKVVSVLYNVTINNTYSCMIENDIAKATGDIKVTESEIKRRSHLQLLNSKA", "assay": "ELISA: plate coated with the named human antigen, 4M2-C12-mIgG2a titrated, absorbance 450 nm"}, "[7]": {"target": "T5, B7H6 (human, UniProt Q68D85 25-262, limits assumed)", "T5 construct": "also called NCR3LG1", "T5 sequence (looked up)": "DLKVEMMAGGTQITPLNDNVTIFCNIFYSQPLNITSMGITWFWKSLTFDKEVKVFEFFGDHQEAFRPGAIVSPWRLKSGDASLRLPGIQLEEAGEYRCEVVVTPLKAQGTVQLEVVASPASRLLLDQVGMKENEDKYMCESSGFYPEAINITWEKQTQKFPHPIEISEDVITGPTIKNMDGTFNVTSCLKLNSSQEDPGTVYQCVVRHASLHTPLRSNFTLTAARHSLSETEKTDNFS", "assay": "ELISA: plate coated with the named human antigen, 4M2-C12-mIgG2a titrated, absorbance 450 nm"}, "[8]": {"target": "T6, HIS-tagged human VISTA (human, UniProt Q9H7M9 33-194)", "T6 construct": "Residues 33-194 are stated only for the protein used in HDXMS (Sino Biological #13482-H08H); also called human VISTA-HIS; not shown: HIS tag", "T6 sequence": "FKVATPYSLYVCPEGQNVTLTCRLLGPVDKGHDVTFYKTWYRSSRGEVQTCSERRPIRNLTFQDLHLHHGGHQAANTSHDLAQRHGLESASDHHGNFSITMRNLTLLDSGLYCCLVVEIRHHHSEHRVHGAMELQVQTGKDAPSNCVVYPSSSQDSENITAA", "assay": "ELISA: plate coated with the named human antigen, 4M2-C12-mIgG2a titrated, absorbance 450 nm; tag of the coated VISTA not stated"}, "[9]": {"target": "T6, HIS-tagged human VISTA", "assay": "BLI (Octet) epitope binning: human VISTA-HIS on anti-Penta-HIS sensor, antibody at 400 nM (concentration from paragraph 696)"}, "[10]": {"target": "T7, recombinant human VISTA-Fc protein (R&D #7126-B7) (human, UniProt Q9H7M9 33-194)", "T7 construct": "Bought protein; also called Fc-tagged human VISTA; not shown: Fc part of a bought fusion protein", "T7 sequence": "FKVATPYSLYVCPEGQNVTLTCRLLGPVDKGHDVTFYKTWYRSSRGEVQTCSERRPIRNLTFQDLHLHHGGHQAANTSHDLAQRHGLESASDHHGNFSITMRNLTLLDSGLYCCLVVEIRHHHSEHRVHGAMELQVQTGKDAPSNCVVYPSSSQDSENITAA", "assay": "competition ELISA: plate-bound human VISTA-Fc, competitor biotinylated VSIG3-Fc at 24 nM", "description": "(§1) For the inhibition assay, 384-well plates were coated with 2 μg/ml of human VISTA-Fc recombinant protein (R&D #7126-B7) diluted in PBS for 24 hrs at 4° C. […] Post incubation, plates were washed three times with TBST and incubated with streptavidin HRP (R&D #DY998) antibody for 1 hr at room temperature followed by three further washes. Colorimetric reactions were developed using standard protocol as described for ELISA above."}, "[11]": {"target": "T7, recombinant human VISTA-Fc protein (R&D …)", "assay": "competition ELISA: plate-bound human VISTA-Fc, competitor LRIG1.HIS at 1 µg/ml", "description": "as §1, with “For” for “For the”, “with 5” for “with 2”, “with anti-HIS” for “with streptavidin”, “HRP (Abcam #ab1187)” for “HRP (R&D #DY998)”"}, "[12]": {"target": "T7, recombinant human VISTA-Fc protein (R&D …)", "assay": "ELISA, VSIG3-Fc on plate-bound human VISTA-Fc"}}}
{"binder": "4M2-C12-mIgG2a (antibody, V domains shown, also called V4P mIgG2a) VH: EVKLVESGPGLVKPSQSLSLTCTVTGYSITSDYAWNWIRQFPGNKLEWMGYITYSGNISYNPSLRSRISITRDTSKNQFFLQLNSVTPEDTATYSCARSLYYPWYFDVWGAGTTVTVSS VL: DIVITQTPAILSTSPGEKVTMTCRASSSVGYIHWYQQKPGSSPKPWIYATSNLASGVPARFSGSGSGTSNSLTITRVEAEDAATYYCQQWSSYPPITFGGGTKLEVKR", "values": [{"measurement": "binding result", "setting": "[1]", "value": "no binding (tested: about 2e-8 M)"}, {"measurement": "binding result", "setting": "[2]", "value": "no binding (tested: about 2e-8 M)"}, {"measurement": "binding result", "setting": "[3]", "value": "no binding (tested: about 2e-8 M)"}, {"measurement": "binding result", "setting": "[4]", "value": "no binding (tested: about 2e-8 M)"}, {"measurement": "binding result", "setting": "[5]", "value": "no binding (tested: about 2e-8 M)"}, {"measurement": "binding result", "setting": "[6]", "value": "no binding (tested: about 2e-8 M)"}, {"measurement": "binding result", "setting": "[7]", "value": "no binding (tested: about 2e-8 M)"}, {"measurement": "EC50 (read off the curve)", "setting": "[8]", "value": "~0.2", "unit": "nM"}]}
{"binder": "IGN175A (antibody, human IgG1, kappa, V domains shown) VH: QVQLQQSGAELMKPGASVKISCKATGYTFSTHWIEWVKQRPGHGLEWIGEILPGSGSTSYNEKFKGKATFTADTSSNTAYMQLSSLTSEDSAVYYCARWLLYYYAMDYWGQGTSVTVSS VL: DVLMTQTPLSLPVSLGDQASISCRSSQSIVHSNGNTYLEWYLQKPGQSPKLLIYKLSNRFSGVPDRFSGSGSGTDFTLKISRVEAEDLGVYYCFQGSHFPYTFGGGTKLEIKR", "values": [{"measurement": "binding result", "setting": "[9]", "value": "binds"}]}
{"binder": "V4-C26 hIgG4 (antibody, Human IgG4 (S228P) / kappa; APC-conjugated in the flow cytometry assays; also called HMBD-002; V4-C26 hIgG4(S228P)) heavy: not shown light: EIVLTQSPATLSLSPGERATLSCRASSSVGYIHWYQQKPGQAPRPIIYTTSNRATGIPARFSGSGSGTDNTLTISSLEPEDSAVYYCQQWSSYPPITFGGGTKLEVKRTVAAPSVFIFPPSDEQLKSGTASVVCLLNNFYPREAKVQWKVDNALQSGNSQESVTEQDSKDSTYSLSSTLTLSKADYEKHKVYACEVTHQGLSSPVTKSFNRGEC", "values": [{"measurement": "IC50", "setting": "[10]", "value": 0.673, "unit": "nM"}, {"measurement": "IC50", "setting": "[11]", "value": 3.4, "unit": "nM"}]}
{"binder": "recombinant human VSIG3-Fc (Fc fusion, UniProt Q5DX21 23-241, looked up, biotinylated in the inhibition ELISA (sites not given), Bought protein; also called VSIG3-Fc (R&D #9229-VS); not shown: Fc part of a bought fusion protein) LEVSESPGSIQVARGQPAVLPCTFTTSAALINLNVIWMVTPLSNANQPEQVILYQGGQMFDGAPRFHGRVGFTGTMPATNVSIFINNTQLSDTGTYQCLVNNLPDIGGRNIGVTGLTVLVPPSAPHCQIQGSQDIGSDVILLCSSEEGIPRPTYLWEKLDNTLKLPPTATQDQVQGTVTIRNISALSSGLYQCVASNAIGTSTCLLDLQVISPQPRNIG", "values": [{"measurement": "EC50", "setting": "[12]", "value": 24, "unit": "nM"}]}
